Legend:
[1] = system: GP2+M cells of PPs; assay: Ligated intestinal loop assay with FITC-RAP; type: in vivo, C57BL/6 mice
Description: (§1) The tissues collected from the above dynamic distribution analysis were homogenized using a 3-fold volume of 0.1 mol/L phosphate buffer (pH 7.4) and centrifuged at 15,000 rpm for 10 min. Especially, the PP collected from the ligated loop assay model were homogenized using 200 μL PBS and centrifuged at 15,000 rpm for 10 min. The supernatant was collected and stored at −20° C. for chromatographic analysis. The separation was achieved on a TSK GMPWXL column (164× 7.8 mm i.d., 10 μm) system operated at 40° C. using an Agilent-1100 HPLC system equipped with FLD. Ammonium acetate aqueous solution (20 mM) was used as a mobile phase at a flow rate of 0.6 mL/min. The excitation wavelength and emission wavelength of FLD were 495 and 515 nm, respectively.
C57BL/6 wild-type (WT) mice, and GP2^−/− C57BL/6 mice were anesthetized using isoflurane. To prepare ligated intestinal loops, incision was made near the linea alba of the abdomen to expose the small intestine. FITC-RAP (10 mg/mL) in 100 μl PBS was injected into the ligated intestinal loop. The mice were kept under anesthesia for 1 h after the injection. PPs were excised and rinsed with PBS 5 times. The cleaned PPs were photographed using an IVIS Lumina XR and then processed for HPGPC-FLD analysis, whole-mount staining, sectioning, and further microscopic analysis.
Frozen sections of PPs from the ligated loop assay were washed three times with PBS and blocked with 5% normal goat serum in PBS for 1 h. Sections were incubated with anti-mouse GP2, anti-mouse NKM 16-2-4 antibody, or anti-mouse CD11c antibody overnight at 4° C. PPs sections were washed three times with PBS and then treated with Alexa Fluor647 secondary goat anti-rabbit, […] anti-rat antibodies for 1 h at RT, followed by three consecutive PBS washes. The cell nuclei were stained with 1 μg/mL 4′,6-diamidino-2-phenylindole (DAPI) for 15 min. Sections were washed three times with PBS and mounted with an anti-fade mounting medium. Images were captured with a Leica TCS SP8 confocal laser scanning microscope.
For whole-mount staining, mouse PPs were isolated from the small intestine and washed 3 times with 1×ice-cold PBS. The PPs were fixed in 4% paraformaldehyde overnight at 4° C. and then permeabilized with 0.1% Triton X-100 for 30 min. PPs were blocked with 5% normal goat serum in PBS for 1 h. A primary rat anti-mouse glycoprotein 2 (GP2) and 1 μg/ml DAPI in PBS were used to incubate PPs for 1 h at RT, followed by rinsing 3×5 mins with PBS. The second goat anti-rat IgG antibody conjugated with Alexa647 was further stained for 1 h at RT. PPs were washed 3×5 mins with PBS and mounted with the anti-fade reagent. Images were analyzed and captured by a confocal laser microscope (SP8, Leica Microsystems).
For the detection of RAP-induced immune responses, tumor tissues and PPs were minced into small pieces and grounded with a syringe plug. For the isolation and identification of M cell, PPs and small intestine segments collected from FITC-RAP-treated mice were incubated in PBS with 0.5 mM EDTA and stirred at 37° C. for 20 min. For the isolation and detection of dendritic cells, PPs collected from WT mice and GP2--mice were ground with a syringe plug. Tissues and cells were collected and rinsed with ice-cold PBS at 400 g for 5 min, followed by filtering through a 70 μm filter. Single cell suspensions were prepared for antibody staining. Cells were incubated with antibodies or the matching isotypes for 25 min at RT. The stained cells were rinsed twice and re-suspended in PBS and analyzed by FACSAria III (BD Biosciences). Data analysis was performed with FlowJo V10 software.

[2] = system: GP2+M cell (M-like cells); assay: In vitro M-cell-like model (Caco-2 / Raji B co-culture on transwell inserts); type: cell-based, human; conditions: confocal microscopy
Description: Caco-2 cells were grown in flasks in 10% (v/v) fetal calf serum DMEM at 37° C. under a 10% CO2 water-saturated atmosphere. Caco-2 cells were grown on Transwell polyester inserts (0.3 μm pore size, 12 mm diameter, Corning Costar) coated with 100 μg/mL matrigel basement membrane matrix phenol red-free (Becton Dickinson), prepared in pure cold DMEM without phenol red. Raji B cells (5× 10^5) were resuspended in DMEM and added to the basolateral chamber of 7-day-old Caco-2 cell monolayers. The co-cultures were maintained for 5 days. Mono-culture of Caco-2 cells, cultivated as above but without the Raji B cells, were used as control. […] The transportation function of this in vitro M cell model was first validated using nanoparticle. FITC-RAP (2 mg/mL) in 400 μl DMEM were added to the upper layers of mono-culture and co-culture inserts and then incubated for 2 h at 37° C. under 5% CO2. All inserts were removed, and lower solutions were collected for chromatographic analysis. The lower solution collected from the co-culture group treated with unlabeled RAP was further used to treat RAW264.7 cells in a 96-well plate for 24 h, and the supernatants were sampled for IL-6 and IL-12 detection using ELISA kits.
Three co-culture and mono-cultures inserts were used to detect the presence of M-like cells by immunofluorescence. […]

[3] = Dynamic distribution of FITC-labeled polysaccharides in the gastrointestinal system and organs of mice after gavage; type: in vivo; conditions: 0 to 5 h after gavage
Description: FTIC-RAP (10 mg in 1 mL distilled water) was orally administrated to each mouse (n=6). After the mice were sacrificed at 0, 1, 2, 3, 4, and 5 h after oral administration, blood and major tissues, including liver, spleen, kidney, stomach, small intestine, mesenteric lymph nodes (MLN), Peyer's patches (PPs), caecum, and colon, were collected and imaged using an IVIS Lumina XR in vivo imaging system (PerkinElmer) immediately. The molecular size of FITC-RAP was monitored using high-performance gel-permeation chromatography. For Western blotting (WB), PPs from different groups were collected at other time points (0, 1, 2, 3, and 4 h after oral administration) and prepared for WB. For ELISA assay, PPs were collected 24 hours after RAP treatment, then homogenized and centrifugated at 15,000 rpm for 10 min to obtain the supernatant for cytokine production assessment using ELISA kits. Similarly, the dynamic distribution of FITC-DOP control in MLN and PPs was investigated.
as §1
The intestinal contents of BALB/C mice that had received oral doses of RAP (100 mg/kg/mice) were collected at 0, 1, 2, 3, 4, 5 h after oral administration (n=6 each group) for carbohydrates detection by the phenol-sulfuric acid method. […] The plate was then cooled to RT and wiped dry to detect at A490 nm by a microplate reader. […]

[4] = system: F4/80+ macrophages / CD34+ cells in the bone marrow; conditions: mouse, in vivo; cited from earlier work
[5] = system: F4/80+ macrophages / CD34+ cells in the bone marrow; conditions: mouse, in vivo, po
[6] = system: human GP2+M cells; assay: Ligated loop assay on human distal ileum explants with PPs
Description: Twenty volunteers who needed surgery were enrolled in this study. The age of the participants ranged from 20 to 50 years. All distal ilea of the small intestine were collected after their surgeries. Twenty samples of the small intestine with PP were used in this study. In brief, the small intestines with PPs were stored in ice-cold PBS with 5% FBS after surgery. The small intestine segment was ligated with a surgical suture for the ligated loop assay. It then was injected with 10 ml FITC-RAP solution (5 mg/ml) followed by incubation at 37° C. under 5% CO2 for 2 h. PPs were collected for whole-mount staining, preparation of frozen sections, and immunofluorescence staining.

[7] = C57BL/6 wild-type mice, 1 hr after injection

**Q.** Which “integrity in PPs (HPGPC-FLD)” value [1, 7] does the source give for “FITC-RAP: RAP labeled with fluorescein isothiocyanate isomer I (FITC)” here?
**A.** undegraded form

**Q.** And the “localization in gut loop (whole animal imaging)” value [1, 7]?
**A.** concentrated in regions associated with PPs

**Q.** What about the “positive signals of FITC-RAP in PPs, GP2-/- versus WT mice” value ([1]; GP2-/- mice, IVIS imaging, HPGPC-FLD) of the same substance?
**A.** significantly decreased

**Q.** What about the “internalization into M cells (whole-mount confocal images)” value ([1]; wild-type mice) of the same substance?
**A.** internalized into M cells

**Q.** And the “uptake by GP2+M cells versus other intestinal epithelial cells (flow cytometry)” value ([1]; wild-type mice)?
**A.** GP2+M cells instead of other intestinal epithelial cells accumulated FITC-RAP

**Q.** And the “co-localization with GP2 receptors on the M cell apical surface (frozen sections)” value ([1]; wild-type mice, confocal microscopy)?
**A.** precisely co-localized

**Q.** What about the “internalization by GP2+M cell in co-culture inserts” value [2] of the same substance?
**A.** internalized by GP2+M cell

**Q.** And the “fluorescence in the liver, kidney, spleen, mesenteric lymph nodes (MLN), and circulation” value [3]?
**A.** no detectable increase

**Q.** And the “integrity in the caecum and colon (gel permeation chromatography)” value ([3]; 100 mg/kg)?
**A.** immediately degraded

**Q.** What about the “integrity in the small intestine (gel permeation chromatography)” value ([3]; 100 mg/kg) of the same substance?
**A.** remained intact in the small intestine for several hours

**Q.** What about the “binding to CD34+ cells in the bone marrow” value [4] of the same substance?
**A.** binding with CD34+ cells in the bone marrow

**Q.** And the “binding to F4/80+ macrophages in the bone marrow” value [5]?
**A.** could also bind

**Q.** What about the “co-localization of FITC-RAP puncta with GP2” value ([6]; human PP domes, whole-mount staining) of the same substance?
**A.** most of which were positive for GP2

**Q.** And the “transport into human PPs by M cells” value ([6]; human distal ileum explants, 5 mg/ml, 2 h)?
**A.** could be transported into PPs

Reference: patent US20250302947A1, “M-cell GP2-mediated lymphatic-targeted drug carriers” (Hong Kong Baptist University, priority 2022, published 2025)
